In series [1] the target is T1, N-terminal domain of human NT5E (human, UniProt P21589 27-335).
T1 construct: also called N-terminal hNT5E
T1 sequence: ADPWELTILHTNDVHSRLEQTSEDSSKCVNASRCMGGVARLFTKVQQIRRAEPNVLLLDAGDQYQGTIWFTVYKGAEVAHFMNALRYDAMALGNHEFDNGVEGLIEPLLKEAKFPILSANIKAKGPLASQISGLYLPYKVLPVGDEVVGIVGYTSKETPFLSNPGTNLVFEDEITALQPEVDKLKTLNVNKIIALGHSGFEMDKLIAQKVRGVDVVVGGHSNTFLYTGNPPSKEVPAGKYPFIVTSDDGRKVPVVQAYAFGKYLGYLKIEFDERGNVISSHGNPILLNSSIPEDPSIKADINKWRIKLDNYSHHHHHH
Nature of the series: SPR, His-captured N-terminal domain, single injection, ATP-free buffer. The protocol: (§1) All SPR experiments were performed at 25° C. using MASS-1 (Bruker) instrument. hNT5E, mNT5E and cNT5E were immobilized onto a nitrilotriacetic acid (NTA) sensor chip via His-tag. For kinetic experiments, after ligand immobilization, 2-fold serial dilutions of the Fabs were injected. After double-reference subtraction data were analyzed with BiaEvaluation (GE Healthcare) or Sierra Analyser (Bruker) software. The experiments were carried in buffers in presence and absence of 1 mM ATP to compare the kinetic parameters of the Fabs binding to closed and open form of NT5E.
In the domain binding experiments, full-length, N-terminal, and C-terminal hNT5E were immobilized as described above.

For series [2], the target named is T2, Full-length human NT5E (recombinant, in-house) (human, UniProt P21589 27-549).
T2 construct: also called hNT5E; hNT5EWT
T2 sequence: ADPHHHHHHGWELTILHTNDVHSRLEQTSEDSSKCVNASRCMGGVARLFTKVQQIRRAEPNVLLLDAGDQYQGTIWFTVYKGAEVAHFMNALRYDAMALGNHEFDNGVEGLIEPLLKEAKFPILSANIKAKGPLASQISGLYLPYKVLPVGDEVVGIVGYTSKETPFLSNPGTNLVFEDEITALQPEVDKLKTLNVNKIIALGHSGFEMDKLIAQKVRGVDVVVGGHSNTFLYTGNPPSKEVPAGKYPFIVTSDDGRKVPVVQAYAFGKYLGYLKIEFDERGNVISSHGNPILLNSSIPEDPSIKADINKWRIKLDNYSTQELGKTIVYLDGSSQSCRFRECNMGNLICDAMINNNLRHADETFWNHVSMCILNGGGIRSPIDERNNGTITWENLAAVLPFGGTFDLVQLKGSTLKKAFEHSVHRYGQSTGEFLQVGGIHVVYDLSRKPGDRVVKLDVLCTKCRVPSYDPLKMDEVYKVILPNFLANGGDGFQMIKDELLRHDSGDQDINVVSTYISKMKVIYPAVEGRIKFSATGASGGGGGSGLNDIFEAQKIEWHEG
Nature of the series: DSF thermal shift, 1.5-fold molar excess of Fab, 1 mM ATP (NT5E alone 59° C. and 64° C.). The protocol: With 1 mM ATP alone (red dashed line), the TM shifts from one transition at 49° C. to two transitions at TM 59° C. and 64° C. […] Thermal shift assays of substrate binding knock-out variants hNT5EDF (FIG. 2B) and hNT5EFF (FIG. 2C) show no change in thermal stability with the addition of ATP.
Thermal stability of samples was analyzed by differential scanning fluorimetry (DSF) using a real-time PCR instrument (Bio-Rad CFX384). Protein samples were mixed with 4× Sypro Orange at a final 4 μM concentration. For target/Fab complexes, 1.5-fold molar excess of Fab was used. All reactions were performed in triplicates in a 384-well plate. Thermal melting curves were monitored from 25° C. to 95° C. in steps of 0.5° C./30 s. Wavelengths of 490 and 575 nm were used for excitation and emission, respectively. The melting temperatures were inferred from the first derivative of the melting curves from the mean of triplicate runs using CFX software provided by the manufacturer.

The target of series [3] is T2, Full-length human NT5E (recombinant, …). Nature of the series: SPR, His-captured NT5E, no ATP. The procedure:
as §1

For series [4], the target named is T3, Full-length cynomolgus NT5E (recombinant) (cynomolgus, UniProt P21589 27-549 (human entry)).
T3 construct: also called cNT5E; cyno NT5E
T3 chain: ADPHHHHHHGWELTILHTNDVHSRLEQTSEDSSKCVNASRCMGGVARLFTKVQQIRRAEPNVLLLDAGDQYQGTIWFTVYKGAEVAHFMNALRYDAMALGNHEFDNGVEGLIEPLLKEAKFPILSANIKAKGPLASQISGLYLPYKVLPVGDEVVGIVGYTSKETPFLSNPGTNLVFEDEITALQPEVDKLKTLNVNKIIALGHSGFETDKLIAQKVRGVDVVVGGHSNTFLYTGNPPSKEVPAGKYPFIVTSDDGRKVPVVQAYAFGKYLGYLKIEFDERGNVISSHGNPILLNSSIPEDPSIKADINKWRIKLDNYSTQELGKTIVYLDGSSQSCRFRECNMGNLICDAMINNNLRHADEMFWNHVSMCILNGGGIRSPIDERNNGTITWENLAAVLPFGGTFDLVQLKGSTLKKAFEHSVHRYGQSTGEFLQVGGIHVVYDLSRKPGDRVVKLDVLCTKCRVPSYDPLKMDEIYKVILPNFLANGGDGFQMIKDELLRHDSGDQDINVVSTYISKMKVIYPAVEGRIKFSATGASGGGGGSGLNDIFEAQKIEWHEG
Briefly: ELISA, biotinylated NT5E on neutravidin plate, no cofactors (apo). The procedure:
(§2) (B) Protein ELISA: Protein-based multipoint ELISA was performed to estimate the affinity of the generated Fabs and IgGs to NT5E. The binding of the Fabs and IgGs to the closed form of NT5E were determined in ELISA buffer (HBST) supplemented with 10 μM zinc chloride and 1 mM ATP while the binding of the same to open form of NT5E were determined in ELISA buffer (HBST) without any cofactors. A fixed concentration of the immobilized target (50 nM) on ELISA plate was incubated with 3-fold serial dilutions of the purified Fabs and IgGs starting from 3 μM and 1 μM respectively for 15 min. The plates were washed and were subsequently incubated with a secondary HRP-conjugated anti-protein L monoclonal antibody (#32420, ThermoFisher, 1:6000 dilution). As with phage ELISA, the plates were again washed, developed with TMB substrate and quenched with 1.0 M HCl, and absorbance (Abs450) was determined. To determine the affinity (EC50), the data were fitted with a non-linear, 4-parameter logistic curve in OriginLab.

The target in series [5] is T2, Full-length human NT5E (recombinant, …). The description is as above. The protocol: as §2

B1: 1789 Fab (Fab, V domains shown)
VH: EVQLVESGGGLVQPGGSLRLSCAASGFNVSYSSIHWVRQAPGKGLEWVASISSSSGYTYYADSVKGRFTISADTSKNTAYLQMNSLRAEDTAVYYCARNYWGWYPFYYFAFDYWGQGTLVTV
VL: DIQMTQSPSSLSASVGDRVTITCRASQSVSSAVAWYQQKPGKAPKLLIYSASSLYSGVPSRFSGSRSGTDFTLTISSLQPEDFATYYCQQGWDYPITFGQGTKVEIKR
Regarding B1, the binding result in series [1] is reported as “no binding (tested: 200 nM)”. Further, the “TM of NT5E in the presence of the Fab” value in series [2] was 66 ° C. For the same molecule, in series [3], the dissociation constant (Kd) was found to be 760 nM, the koff amounted to 0.044 s⁻¹ and the kon is 57000 M⁻¹ s⁻¹.

B2: 1789 IgG (antibody, V domains shown)
VH: EVQLVESGGGLVQPGGSLRLSCAASGFNVSYSSIHWVRQAPGKGLEWVASISSSSGYTYYADSVKGRFTISADTSKNTAYLQMNSLRAEDTAVYYCARNYWGWYPFYYFAFDYWGQGTLVTVSS
VL: DIQMTQSPSSLSASVGDRVTITCRASQSVSSAVAWYQQKPGKAPKLLIYSASSLYSGVPSRFSGSRSGTDFTLTISSLQPEDFATYYCQQGWDYPITFGQGTKVEIKR
With B2, the EC50 in series [4] was determined as 1.04 nM; in series [5], 2.14 nM.
